Measurements as given in paper PMC4446434, “A prophage-encoded actin-like protein required for efficient viral DNA replication in bacteria” (Nucleic Acids Research, 2015).

B1: AlpC (Corynebacterium glutamicum ATCC 13032) (protein)
chain: MTSAVNVQKKTTQKVLKPINTKNYSATDAVQTGQHGSALGSNIGVYTYTAGLDIGNGYVKGIIEATGDTTGTSVDVIDMPSAATRMSRPTEVPEPDDTAVAVTGADFFNHIDTNFNSPMVKGNYRYLCGTRSLSARGSLEEFDLVGNRSKAEQELSKVLVMAVLAAKAVKDFVAAHGRIPQVAVEGDPGVLRVHTYLALALPINEYVGHRHGYKAQFMGDGAANPAVHVVTVNNFETPATVQLIFERVEVIAEGASAQYAITAGGEVLMNGMLADVRSKGLALEGVTAGDVLQARHTIGVDVGEGTVNFPVFTDGRFNHDASRAYDKGYGTVLESAIQAMDDAGLAHNFNSRKQLADYLQRPPSALKRNFYTRVEQHVDQEAVFFVQDVAAEFARVLSDVGALTEVAFVYGGGSGPLRDRLHEALLIKAAEMGSEDTFPVLYLDSAYSRKLNREGLMIAARSIAAKARK
notes: N-terminal His10 tag kept (His10-AlpC), expressed in E. coli BL21 (DE3) pLysS, HisTrap and Superdex 200 purified; encoded by cryptic prophage CGP3; polymerizes with nucleotide and Mg2+

Tests used:
[1] = target: His10-AlpC (Cg1890), actin-like protein of the prophage CGP3 of Corynebacterium glutamicum ATCC 13032 (Corynebacterium glutamicum ATCC 13032 (prophage CGP3)); assay: co-sedimentation; AlpC and AlpA (or control protein) equimolar, 5 uM each, 20 ul, EMSA buffer (20 mM Tris/HCl pH 7.5, 50 mM KCl, 10 mM MgCl2, 5% glycerol, 0.5 mM EDTA, 0.005% Triton X-100), 30°C 30 min, with or without 1 mM ATP and/or 100 ng DNA (500 bp upstream of alpA); 16 100 x g 1 h; SDS-PAGE, Coomassie, ImageQuant TL
purified protein [2] = substrate: Nc1nc2c(ncn2[C@@H]2O[C@H](COP(=O)(O)OP(=O)(O)OP(=O)(O)O)[C@@H](O)[C@H]2O)c(=O)[nH]1; assay: purified protein; format: biochemical, Corynebacterium glutamicum; conditions: 1 uM protein, equimolar MgSO4, 50 mM Tris/HCl pH 7.5, 150 mM NaCl, 10% glycerol, 30 °C
purified protein [3] = substrate: Nc1ncnc2c1ncn2[C@@H]1O[C@H](COP(=O)(O)OP(=O)(O)OP(=O)(O)O)[C@@H](O)[C@H]1O; assay: purified protein; format: biochemical, Corynebacterium glutamicum; conditions: 1 uM protein, equimolar MgSO4, 50 mM Tris/HCl pH 7.5, 150 mM NaCl, 10% glycerol, 30 °C

Row | Molecule | percent of AlpA co-sedimented with AlpC (with ATP and DNA) [1] [%] | percent of AlpA co-sedimented with AlpC (with ATP) [1] [%] | Km (purified protein [2]) [µM] | Km (purified protein [3]) [µM]
1 | His10-AlpA (Cg1891), adaptor protein of the prophage CGP3 of Corynebacterium glutamicum (natural protein) | 38 | 30 |  | 
2 | B1 |  |  | 430 | 200
